Assay results from patent US20240398942A1 (CHIA TAI TIANQING PHARMACEUTICAL GROUP, published 2024).
Numbering of substitutions follows the chain as printed.

B1: mouse anti-CD40 monoclonal antibody C1H1 (antibody, V domains shown)
VH: EVKLVESGGGLVKPGASLKLSCAASGFTFSNYGISWVRQTSDKRLEWVASISSGGDNTYYPDNVKGRFTISRENAKNTLYLQMSSLKSEDTALYYCARAGEKAMDYWGQGTSVTVSS
VL: DIVLTQSPVTLSVTPGDSVSLSCRASQTINNNLHWYQQKSHESPRLLIKYASQSISGIPSRFSGSGSGTDFTLSINSVETEDFGIYFCQQFSSWPLTFGAGTKLELK
notes: Parent mouse antibody from a hybridoma; the mouse constant regions are not; also called Mouse C1H1
B2: BM1 (dacetuzumab) (antibody, human IgG1, kappa, V domains shown)
VH: EVQLVESGGGLVQPGGSLRLSCAASGYSFTGYYIHWVRQAPGKGLEWVARVIPNAGGTSYNQKFKGRFTLSVDNSKNTAYLQMNSLRAEDTAVYYCAREGIYWWGQGTLVTVSS
VL: DIQMTQSPSSLSASVGDRVTITCRSSQSLVHSNGNTFLHWYQQKPGKAPKLLIYTVSNRFSGVPSRFSGSGSGTDFTLTISSLQPEDFATYFCSQTTHVPWTFGQGTKVEIKR
notes: Benchmark antibody, prepared in-house; also called CD40-BM1; benchmark
B3: BM2 (selicrelumab) (antibody, human IgG2, kappa, V domains shown)
VH: not shown
VL: DIQMTQSPSSVSASVGDRVTITCRASQGIYSWLAWYQQKPGKAPNLLIYTASTLQSGVPSRFSGSGSGTDFTLTISSLQPEDFATYYCQQANIFPLTFGGGTKVEIKR
notes: Benchmark antibody, prepared in-house; also called CD40-BM2; benchmark
B4: chimeric antibody C1H1 (antibody, human IgG1, kappa, V domains shown)
VH: B1 VH
VL: DIVLTQSPVTLSVTPGDSVSLSCRASQTINNNLHWYQQKSHESPRLLIKYASQSISGIPSRFSGSGSGTDFTLSINSVETEDFGIYFCQQFSSWPLTFGAGTKLELKR
notes: also called Chimeric C1H1
B5: humanized antibody huC1H1-V1 (antibody, human IgG2, kappa, V domains shown)
VH: EVQLVESGGGLVKPGGSLRLSCAASGFTFSNYGISWVRQAPGKGLEWVASISSGGDNTYYPDNVKGRFTISRDNAKNSLYLQMNSLRAEDTAVYYCARAGEKAMDYWGQGTLVTVSS
VL: EIVLTQSPATLSLSPGERATLSCRASQTINNNLHWYQQKPGQAPRLLIKYASQSISGIPARFSGSGSGTDFTLTISSLEPEDFAVYFCQQFSSWPLTFGGGTKVEIKR
notes: Human IgG2 / kappa
B6: humanized antibody huC1H1-V2 (antibody, human IgG2, kappa, V domains shown)
VH: B5 VH with A49S
VL: B5 VL
notes: Human IgG2 / kappa

target: T1, full-length human CD40 on 293T-NF-κB-Luc-CD40 reporter cells (human, UniProt P25942 21-277); experiment: flow cytometry (FACS) on 293T-CD40 cells stably expressing full-length human CD40, PE-labeled goat anti-human IgG Fc, MFI
T1 construct: Stably expressed full-length human CD40; also called uniprot P25942-1
Experimental: The binding of the anti-CD40 antibody to 293T-CD40 cells (prepared by Biosion) that stably express full-length human CD40 (uniprot #P25942-1, SEQ ID NO: 30) on the cell membrane was measured by flow cytometry (FACS). According to the instructions of lipofectamine 3000 transfection reagent (Thermo Fisher), 293T-CD40 cells were prepared by transfecting 293T cells with pCMV-T-P plasmid inserted with CD40 coding sequence between EcoRI and XbaI loci. Specifically, 293T-CD40 cells were harvested from cell culture flasks, washed twice, and resuspended in FACS buffer (phosphate buffered saline (PBS) containing 2% v/v of fetal bovine serum). The anti-CD40 antibody of the present application or the benchmark serially 4-fold diluted in the FACS buffer from 80 nM was added at 100 μL/well to a 96-well plate containing 2×10⁵ cells/well. The plate was incubated in an ice bath for 40 min. After the cells were washed twice with the FACS buffer, an affinity-purified R-phycoerythrin-labeled goat anti-human IgG (Fcγ fragment-specific, Jackson Immuno Research, Cat. No. 109-115-098, 1:1000 diluted in the FACS buffer) was added at 100 μL per well. After incubation at 4° C. for 40 min in the dark, the cells were washed thrice and resuspended in the FACS buffer. Fluorescence values were measured using Becton Dickinson FACS Canto II-HTS, and curves of fluorescence value vs. antibody concentration were plotted. Data were analyzed using Graphpad Prism software, and EC₅₀ values were obtained.

First: B1
Second: B2
The EC50 of the first is 3.8-fold higher: 1.44 nM for the first, 0.375 nM for the second.

Going from B3 to B4, the EC50 falls from 3.52 nM to 2.13 nM (1.7-fold).

B5 and B6 are within 1.5-fold of each other in EC50: 4.95 nM for the first, 4.64 nM for the second.

target: T2, human CD40-Fc protein (human, biotinylated (sites not given) in the capture ELISA and the benchmark blocking ELISA; not biotinylated in the ligand blocking ELISA); experiment: capture ELISA: antibody captured on coated goat anti-human IgG F(ab')2, biotinylated human CD40-Fc 1.15 nM, streptavidin-HRP, OD(450-630)
T2 construct: also called biotinylated human CD40-Fc
Experimental: The plate was washed once with a washing buffer (PBS+0.05% v/v of Tween-20, PBST) and then blocked with 200 μL/well blocking buffer (PBST containing 5% w/v of skim milk) for 2 h at 37° C. The plate was washed 4 times, and the anti-CD40 antibody of the present application, BM1, BM2, and a negative control hIgG (human immunoglobulin for intravenous injection (pH 4), Hualan Biological Engineering Inc.) serially 5-fold diluted from 66.7 nM in a PBST containing 2.5% w/v of skim milk was added at 100 μL per well. The plate was incubated for 40 min at 37° C. and washed 4 times. A biotinylated human CD40-Fc protein (amino acid residues 21-193 of SEQ ID NO: 30 linked to the N terminus of amino acid residues 99-330 of SEQ ID NO: 28, dissolved in PBST containing 2.5% w/v of skim milk at a concentration of 1.15 nM) was added at 100 μL/well to a 96-well plate coated with the anti-CD40 antibody. The plate was incubated at 37° C. for 40 min and washed 4 times. An HRP-labeled streptavidin (diluted at 1:10000 in PBST, Jackson Immuno Research, Cat. No. 016-030-084) was added at 100 μL/well, and the plate was incubated at 37° C. for another 40 min. After the last wash, 100 μL/well of ELISA substrate TMB (Innoreagents, Cat. No. TMB-S-002) was added and the plate was incubated at room temperature. After 3-10 min, the reaction was stopped by adding 1 M H₂SO₄ at 50 µL/well, and the absorbance of each well was read on a microplate reader using the dual wavelength mode (TMB detection wavelength: 450 nm, reference wavelength: 630 nm). Curves of OD(450-630) values vs. antibody concentration were plotted. Data were analyzed using Graphpad Prism software, and EC₅₀ values were obtained.

B1 and B2 are within 1.5-fold of each other in EC50: 0.141 nM for the first, 0.101 nM for the second.

First: B3
Second: B4
The EC50 of the first is 3.6-fold higher: 0.72 nM for the first, 0.198 nM for the second.

B5 and B6 are within 1.5-fold of each other in EC50: 0.574 nM for the first, 0.424 nM for the second.

target: T2, human CD40-Fc protein; experiment: competitive ELISA: human CD40-Fc coated, antibody titrated, blocked ligand biotinylated human CD40L-his (95 ng/mL), streptavidin-HRP, OD(450-630)
Experimental: The ability of the anti-CD40 antibody to block the binding of CD40 to CD40L was determined by competitive ELISA. Briefly, a human CD40-Fc protein (amino acid residues 21-193 of SEQ ID NO: 30 linked to the N terminus of amino acid residues 99-330 of SEQ ID NO: 28) dissolved in the immobilization buffer (carbonate/bicarbonate buffer) at a concentration of 2 μg/mL was immobilized on a 96-well plate at 100 μL/well and incubated overnight at 4° C. The next day, the plate was washed once with a washing buffer (PBS+0.05% v/v of Tween-20, PBST) before a PBST containing 5% w/v of skim milk was added. The plate was then incubated at 37° C. for 2 h for blocking. The plate was then washed 4 times with the washing buffer.
The anti-CD40 antibody of the present application or the benchmark was serially 5-fold diluted from 200 nM in a PBST containing 2.5% w/v of skim milk, and the serially diluted anti-CD40 antibody or benchmark was added at 100 μL/well to a plate coated with CD40-Fc protein and incubated at 37° C. for 40 min. The plate was then washed 4 times with the washing buffer before a biotinylated human CD40L-his protein (Sino Biological Inc., Cat. No. 10239-H08E, 95 ng/mL) was added at 100 μL per well. The plate was then incubated for 40 min at 37° C. The plate was washed again with the washing buffer. Then, an HRP-labeled streptavidin (Jackson Immunoresearch, Cat. No. 016-030-084, 1:10000 diluted in PBST buffer) was added at 100 μL/well and the plate was incubated at 37° C. for 40 min. The plate was washed again with the washing buffer. Finally, TMB was added and the reaction was stopped by adding 1 M H₂SO₄. The absorbance of each well was read on a microplate reader using the dual wavelength mode (TMB detection wavelength: 450 nm, reference wavelength: 630 nm). Curves of OD(450-630) values vs. antibody concentration were plotted. Data were analyzed using Graphpad Prism software, and IC₅₀ values were obtained.

First: B1
Second: B2
The IC50 of the first is 3.2-fold higher: 6.46 nM for the first, 2.01 nM for the second.

B3 and B4 are within 1.5-fold of each other in IC50: 7.22 nM for the first, 6.97 nM for the second.

B5 and B6 are within 1.5-fold of each other in IC50: 7.91 nM for the first, 6.1 nM for the second.
